The values below come from patent US20090297524A1 (DOMANTIS, published 2009).

First the molecules themselves.
B1: DOM.92 (other)
VH: EVQLLESGGGLVQPGGSLRLSCAASGFTFVDYPMGWVRQAPGKGLEWVSTISTGGFSTYYADSVKGRFTISRDNSKNTLYLQMNSLRAEDTAVYYCAKARYYYLSQIKNFDYWGQGTLVTVSS
notes: VH dAb
B2: DOM.94 (other)
VH: EVQLLESGGGLVQPGGSLRLSCAASGFTFELYPMSWVRQAPGKGLEWVSTISPTGLLTYYADSVKGRFTISRDNSKNTLYLQMNSLRAEDTAVYYCAKFKRSGKTDDTNFDYWGQGTLVTVSS
notes: VH dAb
B3: DOM-36 (other)
VL: DIQMTQSPSSLSASVGDRVTITCRASQDIDHNLEWYQQKPGKAPKLLIYDSSMLQSGVPSRFSGSGSGTDFTLTISSLQPEDFATYYCQQYHSIPVTFGQGTKVEIKR
notes: Vk dAb
B4: DOM.107 (other)
VL: DIQMTQSPSSLSASVGDRVTITCRASQAIGHRLRWYQQKPGKAPKLLIYHRSKLQSGVPSRFSGSGSGTDFTLTISSLQPEDFATYYCQQTYSSPHTFGQGTKVEIKR
notes: Vk dAb
B5: DOM.155 (other)
VL: B3 VL with D30G, H31M, N32D, K39I, A43V, S51A, M53Y, S93K, I94L, V96A
notes: Vk dAb
B6: DOM.108 (other)
VL: B4 VL with T91R, Y92A, S93V, S94R, H96F
notes: Vk dAb
B7: DOM.142 (other)
VL: DIQMTQSPSSLSASVGDRVTITCRASQFIGDSLSWYQQKPGKAPKLLIYFSSILQSGVPSRFSGSGSGTDFTLTISSLQPEDFATYYCQQYHTSPTTFGRGTKVKIKR
notes: Vk dAb
B8: DOM-37 (other)
VL: B3 VL with D28Q, D30E, H31T, S51G, M53W, I94L, V96A
notes: Vk dAb
B9: DOM.101 (other)
VL: B4 VL with T91V, Y92A, S93L, S94F, H96Y
notes: Vk dAb
B10: DOM.157 (other)
VL: B3 VL with D28N, D30G, H31E, N32D, K42N, D50S, S51A, M53H, H92S, I94Y
notes: Vk dAb
B11: DOM.109 (other)
VL: B4 VL with S93Y, S94R, H96L
notes: Vk dAb
B12: DOM.160 (other)
VL: B3 VL with D30E, H31A, N32D, D50H, M53E, S93M, I94S
notes: Vk dAb
B13: DOM.164 (other)
VL: B3 VL with D28S, H31T, N32D, S51G, M53W, H92R, S93W
notes: Vk dAb
B14: DOM.105 (other)
VL: B4 VL with T91S, S93A, S94R, H96V
notes: Vk dAb
B15: DOM.159 (other)
VL: B3 VL with T5I, D30N, H31E, N32D, D50N, S51A, E81K, S93T, I94N, V96T
notes: Vk dAb
B16: DOM.162 (other)
VL: B3 VL with D30S, H31D, N32D, D50N, M53F, T69A, I94L
notes: Vk dAb
B17: DOM-52 (other)
VL: B4 VL with A28D, H31S, R32A, H50L, R51G, K53D, Y92Q, S93Y, S94F, H96T
notes: Vk dAb
B18: DOM.150 (other)
VL: B4 VL with A28G, H31T, R32D, R34N, H50M, R51G, K53Y, T91I, S94F, H96I
notes: Vk dAb
B19: DOM.110 (other)
VL: DIQMTQSPASLSASVGDRVTITCRASQDIDPMLRWYQQKPGKAPKLLIYAGSILQSGVPSRFSGSGSGTDFTLTISSLQPEDFATYYCQQTSIRPYTFGQGTKVEIKR
notes: Vk dAb
B20: DOM-47 (other)
VL: B7 VL with F28W, S51G, I53Y, H92L, T93H, S94T, T96S, R100Q, K105E
notes: Vk dAb
B21: DOM.91 (other)
VL: DIQMTQSPSSLSASVGDRVTITCRASQQISDELNWYQQKPGKAPKLLIYAVSILQSGVPSRFSGSGSGTDFTLTISSLQPEDFATYYCQQWLSFPSTFGQGTKVEIKR
notes: Vk dAb
B22: DOM.154 (other)
VL: B19 VL with A9S, D30E, P31E, R34H, A50F, I53L, G66R, T91H, S92H, I93T
notes: Vk dAb
B23: DOM.143 (other)
VL: B3 VL with D28T, D30E, H31T, M53Q, F83L, S93G, I94Y, V96T
notes: Vk dAb
B24: DOM.106 (other)
VL: B4 VL with A28S, G30N, R34Y, K53R, T91Y, Y92K, S93V, S94R, H96N
notes: Vk dAb
B25: DOM.104 (other)
VL: B4 VL with T91V, Y92R, S93F, H96Y
notes: Vk dAb
B26: DOM-49 (other)
VL: B7 VL with I2V, F28W, S51G, I53Y, H92M, T93S, S94A, T96S, R100Q, K105E
notes: Vk dAb
B27: DOM.103 (other)
VL: B4 VL with T91V, Y92R, S93A, S94V, H96Y
notes: Vk dAb
B28: DOM.144 (other)
VL: B3 VL with D28M, H31Q, N32D, D50N, S51A, M53W, S93G, I94Y, V96I
notes: Vk dAb
B29: DOM.163 (other)
VL: B3 VL with D30E, H31G, M53Q, S93H, I94L, V96T
notes: Vk dAb
B30: DOM.175 (other)
VL: B4 VL with A28P, G30S, H31G, R32G, H50S, R51T, K53M, T91L, S94A, H96Y
notes: Vk dAb
B31: DOM.161 (other)
VL: B3 VL with H31S, N32D, K45M, D50S, M53D, I94L
notes: Vk dAb
B32: DOM.156 (other)
VL: B3 VL with D30M, H31D, D50A, S51A, M53W, S93K, I94L
notes: Vk dAb
B33: DOM-86 (other)
VL: B3 VL with D30G, H31D, N32A, E34F, D50Y, S65G, Y91R, I94T, V96A
notes: Vk dAb
B34: DOM-116 (other)
VL: DIQMTQSPSSLSASVGDRVTITCRASQPIGPDLLWYQQKPGKAPKLLIYQTSILQSGVPSRFSGSGSGTDFTLTISSLQPEDFATYYCQQYWAFPVTFGQGTKVEIKR
notes: Vk dAb
B35: DOM-35 (other)
VL: B7 VL with H92M, T93D, S94I, T96I, R100Q, K105E
notes: Vk dAb
B36: DOM.147 (other)
VL: B3 VL with D28E, D30E, H31T, M53H, S93Q, I94N, V96P
notes: Vk dAb
B37: DOM.158 (other)
VL: DIQMTQSPSSLSASVGDRVTITCRASQPIDEDLEWYQQKPGNAPKLLIYSASYLQSGVPSRFSGSGSGTDFTLTISRLQPEDFATYYCQQYHLLPATFGQGTKVEIKR
notes: Vk dAb
B38: DOM.89 (other)
VL: B19 VL with S92L, I93V, R94T
notes: Vk dAb
B39: DOM-38 (other)
VL: B3 VL with D30G, H31N, K45R, D50H, S51G, M53W, H92D, S93F, I94N, V96T
notes: Vk dAb
B40: DOM.93 (other)
VH: EVQLLESGGGLVQPGGSLRLSCAASGFTFDIYGMTWVRQAPGKGLEWVSSISPLGLVTYYADPVKGRFTISRDNSKNTLYLQMNSLRAEDTAVYYCAKLKEHGDVPFDYWGQGTLVTVSS
notes: VH dAb
B41: DOM.90 (other)
VL: DIQMTQSPSSLSASVGDRVTITCRASQSISDALFWYQQKPGKAPRLLIYYGSVLQSGVPSRFSGSGSGTDFTLTISSLQPEDFATYYCQQRFQEPVTFGQGTKVEIKR
notes: Vk dAb

Numbering of substitutions follows the chain as printed.

The target in the experiment is T1, Recombinant human CD40L (human, UniProt P29965 108-261, limits assumed).
T1 construct: also called CD40 ligand
T1 sequence (looked up): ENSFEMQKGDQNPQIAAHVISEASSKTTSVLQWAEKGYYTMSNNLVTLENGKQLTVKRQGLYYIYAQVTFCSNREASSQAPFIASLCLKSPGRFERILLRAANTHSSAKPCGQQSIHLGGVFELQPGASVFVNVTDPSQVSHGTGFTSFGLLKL
Description: CD40L/CD40-Fc receptor binding assay.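 Note: plate assay with coated human CD40-Fc, bound ligand detected via HRP anti-biotin antibody and TMB, OD at 450 nm, lower signal indicates stronger inhibition by dAb.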
Description: A 96 well Nunc Maxisorp assay plate was coated overnight at 4° C. with 100 μl per well of recombinant human CD40/Fc (R&D Systems) at 0.5 μg/ml in carbonate buffer. The plate was washed 3 times with 300 μl of 0.05% Tween/PBS and 3 times with 300 μl of PBS using a Tecan plate washer. The wells were blocked using 200 μl of PBS containing 2% (w/v) BSA and incubated for a minimum of 1 h at room temperature. The wells were washed as above, then 50 μl of purified dAb protein (or unpurified supernatant containing dAb from a micro-culture expression) was added to each well.
The plate was washed as described above, then 100 μl HRP conjugated anti-biotin antibody (1:5000 dilution in diluent) added to each well and the plate incubated for 1 hr at room temperature. The plate was washed again as described above using a Tecan plate washer and the assay developed using 100 μl of SureBlue 1-Component TMB MicroWell Peroxidase solution (the plate was left at room temperature for up to 20 min). The reaction was stopped by the addition of 100 μl M hydrochloric acid. The OD₄₅₀ₙₘ of the plate was assayed within 30 minutes of acid addition. The OD₄₅₀ₙₘ is proportional to the amount of bound streptavidin-HRP conjugate, therefore the greater the degree of dAb inhibition the lower the OD₄₅₀ₙₘ of the resulting signal.
As to B1, the binding result is listed as “binds”.

With B2, the binding result is reported as “binds”.

In the case of B3, the binding result was “binds”.

With B4, the binding result is on record as “binds”. As to B5, the binding result is recorded as “binds”. B6: the binding result is given as “binds”. Consider B7, for which the binding result was “binds”.

B8: the binding result is listed as “binds”. For B9, the binding result was “binds”. Take B10: the binding result is listed as “binds”. As to B11, the binding result is “binds”. As for B12, the binding result is “binds”. Turning to B13, the binding result was “binds”. As to B14, the binding result is on record as “binds”. On to B15, for which the binding result is “binds”.

For the molecule B16, the binding result is on record as “binds”.

On to B17, for which the binding result is on record as “binds”. Next, B18: “binds”; B19: “binds”. Turning to B20, the binding result is “binds”. In the case of B21, the binding result was “binds”. B22: the binding result is on record as “binds”. Take B23: the binding result is recorded as “binds”. Next, B24: “binds”; B25: “binds”. As for B26, the binding result is “binds”. In the case of B27, the binding result was “binds”. As to B28, the binding result was “binds”. Consider B29, for which the binding result is “binds”. For the molecule B30, the binding result is on record as “binds”. In the case of B31, the binding result is “binds”. For B32, the binding result is on record as “binds”. Then B33, with “binds”.

As to B34, the binding result is “binds”. In the case of B35, the binding result is “binds”. As to B36, the binding result is reported as “binds”.

Consider B37, for which the binding result is listed as “binds”. For the molecule B38, the binding result was “binds”. As to B39, the binding result was “binds”. For B40, the binding result is listed as “binds”. For the molecule B41, the binding result is on record as “binds”.
